# Experimental data from patent publication US20260284189A1, “TREATMENT OF NON-SMALL CELL LUNG CANCER” (ASTRAZENECA AB, priority 2023, published 2026).
# Where “and” joins values, the source holds several entries; their conditions need not be identical. Identical values can stand only once.
# Experiment: AEGEAN phase III: adverse events in the safety analysis set (CTCAE v5.0)
# Details: for COVID-19: number of patients with event / COVID-19: patients with event: grouped term; for Any immune-mediated event: number of patients / Any immune-mediated event: patients: immune-mediated AE
# [1] = all-causality, safety analysis set N = 400
# [2] = any cause, Any Grade, safety analysis set N = 400
# [3] = any cause, Any Grade, safety analysis set N = 400, listed as durvalumab
# [4] = any cause, Max. Grade 3 or 4, safety analysis set N = 400
# [5] = immune-mediated AE (grouped term), Any Grade 3 or 4, safety analysis set N = 400
# [6] = immune-mediated AE (grouped term), Any Grade, safety analysis set N = 400
# [7] = Any Grade 3 or 4, safety analysis set N = 400
# [8] = Any Grade, safety analysis set N = 400
# [9] = overall study period, safety analysis set N = 400
# [10] = overall study period, safety analysis set N = 400, listed as durvalumab
# [11] = possibly related to study treatment, Any Grade, safety analysis set N = 400
# [12] = possibly related to study treatment, Max. Grade 3 or 4, safety analysis set N = 400
# From the text: Safety was monitored throughout the study and adverse events (AEs) were graded using the National Cancer Institute Common Toxicity Criteria for AEs version 5.0.
substance,measurement,setting,value
Durvalumab: antibody that selectively binds PD-L1 and blocks binding of PD-L1 to PD-1 and CD80; arm given with platinum-based chemotherapy before surgery,Adverse events leading to cancellation of surgery: number of patients,[1],7
same,Adverse events leading to cancellation of surgery: patients,[1],(1.8) %
same,Adverse events leading to discontinuation of durvalumab/placebo: number of patients,[1],48
same,Adverse events leading to discontinuation of durvalumab/placebo: patients,[1],(12.0) %
same,COVID-19: number of patients with event,[2],44
same,COVID-19: patients with event,[2],(11.0) %
same,Alopecia: number of patients with event,[2],68
same,Alopecia: patients with event,[2],(17.0) %
same,Anemia: number of patients with event,[2],136
same,Anemia: patients with event,[2],(34.0) %
same,Asthenia: number of patients with event,[2],50
same,Asthenia: patients with event,[2],(12.5) %
same,Constipation: number of patients with event,[2],99
same,Constipation: patients with event,[2],(24.8) %
same,Decreased appetite: number of patients with event,[2],73
same,Decreased appetite: patients with event,[2],(18.3) %
same,Diarrhea: number of patients with event,[2],52
same,Diarrhea: patients with event,[2],(13.0) %
same,Fatigue: number of patients with event,[2],52
same,Fatigue: patients with event,[2],(13.0) %
same,Insomnia: number of patients with event,[2],41
same,Insomnia: patients with event,[2],(10.3) %
same,Nausea: number of patients with event,[2],101
same,Nausea: patients with event,[2],(25.3) %
same,Neutropenia: number of patients with event,[2],68
same,Neutropenia: patients with event,[2],(17.0) %
same,Neutrophil count decreased: number of patients with event,[2],64
same,Neutrophil count decreased: patients with event,[2],(16.0) %
same,Procedural pain: number of patients with event,[2],44
same,Procedural pain: patients with event,[2],(11.0) %
same,Pruritis: number of patients with event,[2],47
same,Pruritis: patients with event,[2],(11.8) %
same,Rash: number of patients with event,[2],56
same,Rash: patients with event,[2],(14.0) %
same,Vomiting: number of patients with event,[2],45
same,Vomiting: patients with event,[2],(11.3) %
same,Pruritis: patients with event,[3],11.8%
same,Rash: patients with event,[3],14%
same,COVID-19: number of patients with event,[4],1
same,COVID-19: patients with event,[4],(0.3) %
same,Alopecia: number of patients with event,[4],0
same,Anemia: number of patients with event,[4],26
same,Anemia: patients with event,[4],(6.5) %
same,Asthenia: number of patients with event,[4],0
same,Constipation: number of patients with event,[4],1
same,Constipation: patients with event,[4],(0.3) %
same,Decreased appetite: number of patients with event,[4],1
same,Decreased appetite: patients with event,[4],(0.3) %
same,Diarrhea: number of patients with event,[4],3
same,Diarrhea: patients with event,[4],(0.8) %
same,Fatigue: number of patients with event,[4],0
same,Insomnia: number of patients with event,[4],0
same,Nausea: number of patients with event,[4],1
same,Nausea: patients with event,[4],(0.3) %
same,Neutropenia: number of patients with event,[4],36
same,Neutropenia: patients with event,[4],(9.0) %
same,Neutrophil count decreased: number of patients with event,[4],39
same,Neutrophil count decreased: patients with event,[4],(9.8) %
same,Procedural pain: number of patients with event,[4],1
same,Procedural pain: patients with event,[4],(0.3) %
same,Pruritis: number of patients with event,[4],1
same,Pruritis: patients with event,[4],(0.3) %
same,Rash: number of patients with event,[4],2
same,Rash: patients with event,[4],(0.5) %
same,Vomiting: number of patients with event,[4],3
same,Vomiting: patients with event,[4],(0.8) %
same,COVID-19 events of max. grade 5: number of patients,"any cause, assessed as unrelated to study treatment, safety analysis set, listed as D",5
same,Decreased appetite with an outcome of death (max. grade 5): number of patients,"any cause, safety analysis set, listed as D",1
same,Dermatitis/Rash: number of patients,[5],2
same,Dermatitis/Rash: patients,[5],(0.5) %
same,Diarrhea/Colitis: number of patients,[5],0
same,Hepatic events: number of patients,[5],8
same,Hepatic events: patients,[5],(2.0) %
same,Hyperthyroid events: number of patients,[5],0
same,Hypothyroid events: number of patients,[5],0
same,Pneumonitis: number of patients,[5],5
same,Pneumonitis: patients,[5],(1.2) %
same,Dermatitis/Rash: number of patients,[6],22
same,Dermatitis/Rash: patients,[6],(5.5) %
same,Diarrhea/Colitis: number of patients,[6],3
same,Diarrhea/Colitis: patients,[6],(0.7) %
same,Hepatic events: number of patients,[6],13
same,Hepatic events: patients,[6],(3.2) %
same,Hyperthyroid events: number of patients,[6],7
same,Hyperthyroid events: patients,[6],(1.7) %
same,Hypothyroid events: number of patients,[6],37
same,Hypothyroid events: patients,[6],(9.2) %
same,Pneumonitis: number of patients,[6],15
same,Pneumonitis: patients,[6],(3.7) %
same,Pneumonitis: patients,"immune-mediated AE (grouped term), Any Grade, safety analysis set N = 400, listed as durvalumab",3.7%
same,Any immune-mediated event: number of patients,[7],17
same,Any immune-mediated event: patients,[7],(4.2) %
same,Any immune-mediated event: patients,"Any Grade 3 or 4, safety analysis set N = 400, listed as durvalumab",4.2%
same,Any immune-mediated event: number of patients,[8],95
same,Any immune-mediated event: patients,[8],(23.7) %
same,Any immune-mediated event: patients,"Any Grade, safety analysis set N = 400, listed as durvalumab",23.7% and 23.5%
same,All-causality adverse events with outcome of death: number of patients,[9],23
same,All-causality adverse events with outcome of death: patients,[9],(5.8) %
same,"All-causality adverse events, maximum grade 3 or 4: number of patients",[9],169
same,"All-causality adverse events, maximum grade 3 or 4: patients",[9],(42.3) %
same,All-causality serious adverse events: number of patients,[9],150
same,All-causality serious adverse events: patients,[9],(37.5) %
same,Any-grade adverse events possibly related to durvalumab/placebo/chemotherapy: number of patients,[9],346
same,Any-grade adverse events possibly related to durvalumab/placebo/chemotherapy: patients,[9],(86.5) %
same,Any-grade all-causality adverse events: number of patients,[9],386
same,Any-grade all-causality adverse events: patients,[9],(96.5) %
same,Possibly related adverse events with outcome of death: number of patients,[9],7
same,Possibly related adverse events with outcome of death: patients,[9],(1.8) %
same,"Possibly related adverse events, maximum grade 3 or 4: number of patients",[9],129
same,"Possibly related adverse events, maximum grade 3 or 4: patients",[9],(32.3) %
same,"All-causality adverse events, maximum grade 3 or 4: patients",[10],42.3%
same,Any-grade adverse events possibly related to durvalumab/placebo/chemotherapy: patients,[10],86.5%
same,Any-grade all-causality adverse events: patients,[10],96.5%
same,Possibly related adverse events with outcome of death: patients,[10],1.8%
same,"Possibly related adverse events, maximum grade 3 or 4: patients",[10],32.3%
same,Alanine aminotransferase increased: number of patients with event,[11],30
same,Alanine aminotransferase increased: patients with event,[11],(7.5) %
same,Alopecia: number of patients with event,[11],66
same,Alopecia: patients with event,[11],(16.5) %
same,Anemia: number of patients with event,[11],104
same,Anemia: patients with event,[11],(26.0) %
same,Arthralgia: number of patients with event,[11],21
same,Arthralgia: patients with event,[11],(5.3) %
same,Asthenia: number of patients with event,[11],34
same,Asthenia: patients with event,[11],(8.5) %
same,Constipation: number of patients with event,[11],44
same,Constipation: patients with event,[11],(11.0) %
same,Decreased appetite: number of patients with event,[11],49
same,Decreased appetite: patients with event,[11],(12.3) %
same,Diarrhea: number of patients with event,[11],34
same,Diarrhea: patients with event,[11],(8.5) %
same,Fatigue: number of patients with event,[11],42
same,Fatigue: patients with event,[11],(10.5) %
same,Hypothyroidism: number of patients with event,[11],37
same,Hypothyroidism: patients with event,[11],(9.3) %
same,Leukopenia: number of patients with event,[11],33
same,Leukopenia: patients with event,[11],(8.3) %
same,Nausea: number of patients with event,[11],84
same,Nausea: patients with event,[11],(21.0) %
same,Neutropenia: number of patients with event,[11],60
same,Neutropenia: patients with event,[11],(15.0) %
same,Neutrophil count decreased: number of patients with event,[11],61
same,Neutrophil count decreased: patients with event,[11],(15.3) %
same,Platelet count decreased: number of patients with event,[11],29
same,Platelet count decreased: patients with event,[11],(7.3) %
same,Pruritis: number of patients with event,[11],33
same,Pruritis: patients with event,[11],(8.3) %
same,Rash: number of patients with event,[11],37
same,Rash: patients with event,[11],(9.3) %
same,Thrombocytopenia: number of patients with event,[11],24
same,Thrombocytopenia: patients with event,[11],(6.0) %
same,Vomiting: number of patients with event,[11],31
same,Vomiting: patients with event,[11],(7.8) %
same,White blood cell count decreased: number of patients with event,[11],25
same,White blood cell count decreased: patients with event,[11],(6.3) %
same,Alanine aminotransferase increased: number of patients with event,[12],2
same,Alanine aminotransferase increased: patients with event,[12],(0.5) %
same,Alopecia: number of patients with event,[12],0
same,Anemia: number of patients with event,[12],17
same,Anemia: patients with event,[12],(4.3) %
same,Arthralgia: number of patients with event,[12],1
same,Arthralgia: patients with event,[12],(0.3) %
same,Asthenia: number of patients with event,[12],0
same,Constipation: number of patients with event,[12],0
same,Decreased appetite: number of patients with event,[12],0
same,Diarrhea: number of patients with event,[12],3
same,Diarrhea: patients with event,[12],(0.8) %
same,Fatigue: number of patients with event,[12],0
same,Hypothyroidism: number of patients with event,[12],0
same,Leukopenia: number of patients with event,[12],9
same,Leukopenia: patients with event,[12],(2.3) %
same,Nausea: number of patients with event,[12],1
same,Nausea: patients with event,[12],(0.3) %
same,Neutropenia: number of patients with event,[12],36
same,Neutropenia: patients with event,[12],(9.0) %
same,Neutrophil count decreased: number of patients with event,[12],38
same,Neutrophil count decreased: patients with event,[12],(9.5) %
same,Platelet count decreased: number of patients with event,[12],7
same,Platelet count decreased: patients with event,[12],(1.8) %
same,Pruritis: number of patients with event,[12],1
same,Pruritis: patients with event,[12],(0.3) %
same,Rash: number of patients with event,[12],2
same,Rash: patients with event,[12],(0.5) %
same,Thrombocytopenia: number of patients with event,[12],6
same,Thrombocytopenia: patients with event,[12],(1.5) %
same,Vomiting: number of patients with event,[12],3
same,Vomiting: patients with event,[12],(0.8) %
same,White blood cell count decreased: number of patients with event,[12],8
same,White blood cell count decreased: patients with event,[12],(2.0) %
